Measured values published in paper PMC7076015.

How the values were obtained:
MBP-KPNA7(E344Q) (human) [1] = target: MBP-KPNA7(E344Q) (human) (UniProt A9QM74)
MBP-KPNA7(E344Q) (human) [2] = target: MBP-KPNA7(E344Q) (human) (UniProt A9QM74); remark: listed apart in the source
MBP-KPNA7(E344Q) (human) [3] = target: MBP-KPNA7(E344Q) (human) (UniProt A9QM74); experiment: pull-down; MBP fusion proteins on amylose resin (1 μg/μl), GST-GFP-NLS constructs in solution (250 nM or indicated concentrations) with Imp-β (250 nM); 2 hrs at 4 °C, 20 mM Tris pH 8, 200 mM NaCl, 1 mM EDTA, 1 mM DTT, 0.05% Triton X-100; western blot

MBP-KPNA7(E344Q) (human), sequence (A9QM74 whole entry E344Q, the tested form may be a part): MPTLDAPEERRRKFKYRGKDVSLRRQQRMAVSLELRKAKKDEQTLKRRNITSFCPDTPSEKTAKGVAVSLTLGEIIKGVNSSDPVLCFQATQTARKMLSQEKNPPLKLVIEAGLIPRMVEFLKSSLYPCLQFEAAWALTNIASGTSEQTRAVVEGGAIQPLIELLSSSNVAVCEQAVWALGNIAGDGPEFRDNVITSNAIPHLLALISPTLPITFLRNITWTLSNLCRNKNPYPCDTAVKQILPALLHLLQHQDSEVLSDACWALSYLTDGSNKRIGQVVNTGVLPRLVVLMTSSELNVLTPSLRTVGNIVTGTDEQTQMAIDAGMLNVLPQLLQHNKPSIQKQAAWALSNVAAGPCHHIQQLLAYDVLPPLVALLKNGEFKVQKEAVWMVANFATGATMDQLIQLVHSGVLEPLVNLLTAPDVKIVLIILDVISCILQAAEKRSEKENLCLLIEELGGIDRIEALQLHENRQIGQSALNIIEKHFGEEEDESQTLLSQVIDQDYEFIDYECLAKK
GST-GFP-hnRNP U monopartite NLS (domain or fragment), sequence (Q00839 2-825): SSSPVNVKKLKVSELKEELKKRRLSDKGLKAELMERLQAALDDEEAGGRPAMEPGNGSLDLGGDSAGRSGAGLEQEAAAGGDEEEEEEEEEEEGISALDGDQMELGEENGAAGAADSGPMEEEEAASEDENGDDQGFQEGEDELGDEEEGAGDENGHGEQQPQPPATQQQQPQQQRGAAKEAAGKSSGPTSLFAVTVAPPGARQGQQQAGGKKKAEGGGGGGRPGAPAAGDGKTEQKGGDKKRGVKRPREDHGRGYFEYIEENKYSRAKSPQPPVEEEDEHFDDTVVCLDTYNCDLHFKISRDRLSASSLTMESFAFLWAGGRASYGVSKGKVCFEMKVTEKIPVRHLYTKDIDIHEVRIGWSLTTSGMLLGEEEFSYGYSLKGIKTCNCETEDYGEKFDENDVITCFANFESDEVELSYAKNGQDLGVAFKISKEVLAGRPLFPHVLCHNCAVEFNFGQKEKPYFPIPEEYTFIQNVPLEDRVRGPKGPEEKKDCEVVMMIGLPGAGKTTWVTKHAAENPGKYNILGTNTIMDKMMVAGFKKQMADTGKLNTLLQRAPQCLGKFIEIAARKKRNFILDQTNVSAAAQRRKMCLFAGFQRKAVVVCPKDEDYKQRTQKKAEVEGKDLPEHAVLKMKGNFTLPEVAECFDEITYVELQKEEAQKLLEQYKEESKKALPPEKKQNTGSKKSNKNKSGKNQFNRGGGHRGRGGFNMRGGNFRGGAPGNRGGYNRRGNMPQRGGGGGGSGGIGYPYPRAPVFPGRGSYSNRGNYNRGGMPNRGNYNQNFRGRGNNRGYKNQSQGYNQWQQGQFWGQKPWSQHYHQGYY

Substance | nuclear import of GST-GFP-NLS in digitonin-permeabilized HeLa cells, reduction compared to wild-type KPNA7 (MBP-KPNA7(E344Q) (human) [1]) [%] | nuclear import of GST-GFP-hnRNP U-mNLS in digitonin-permeabilized HeLa cells, reduction compared to WT KPNA7 (MBP-KPNA7(E344Q) (human) [2]) [%] | fold less binding than WT or P339A KPNA7 (MBP-KPNA7(E344Q) (human) [3]) [fold]
GST-GFP-SV40-NLS (domain or fragment) | 20 | – | –
GST-GFP-hnRNP U monopartite NLS (domain or fragment) | – | 30 | 8
